Assay results published in PMC4471362.

Substrate: Nc1ncnc2c1ncn2[C@@H]1O[C@H](COP(=O)(O)OP(=O)(O)OP(=O)(O)O)[C@@H](O)[C@H]1O
Test: purified protein
Settings: basal ATPase, 0.4 μM protein, 10 mM HEPES-KOH pH 7.5, 100 mM KCl, 2 mM MgCl2, 0.5 mM DTT, kcat unit as printed

B1: PfHsp70-z (Plasmodium falciparum 3D7) (protein)
chain: MSVLGIDIGNDNSVVATINKGAINVVRNDISERLTPTLVGFTEKERLIGDSALSKLKSNYKNTCRNIKNLIGKIGTDVKDDIEIHEAYGDLIPCEYNYLGYEVEYKNEKVVFSAVRVLSALLSHLIKMAEKYIGKECKEIVLSYPPTFTNCQKECLLAATKIINANVLRIISDNTAVALDYGMYRMKEFKEDNGSLLVFVNIGYANTCVCVARFFSNKCEILCDIADSNLGGRNLDNELIKYITNIFVNNYKMNPLYKNNTPELCPMGTGRLNKFLVTSTASDQQNGINNKVRIKLQEVAIKTKKVLSANNEASIHVECLYEDLDCQGSINRETFEELCSNFFLTKLKHLLDTALCISKVNIQDIHSIEVLGGSTRVPFIQNFLQQYFQKPLSKTLIADESIARGCVLSAAMVSKHYKVKEYECVEKVTHPINVEWHNINDASKSNVEKLYTRDSLKKKVKKIVIPEKGHIKLTAYYENTPDLPSNCIKELGSCIVKINEKNDKIVESHVMTTFSNYDTFTFLGAQTVTKSVIKSKDEKKKADDKTEDKGEKKDAKDQEQNDDKDQTNDNNMNEKDTNDKKEKNNETNSPNKTELKKGEEGKVQTCYTTIPIETLLAQGSYSSKDIFNFSEQEINMQHSDILEGERLKHLNELETIIYESRSRLNGIYKNFVMDDERDRILLSLDDYENWLYDNIEENKNMFIKKKEEIRDLIKNIVQKFDVYNSKQQNLGNIINHLNNIITQCSNKPSDESQNIINRTTKFLNNINSLQEQEKNKPLYEPPVYTLNDIEAEFNEVTQLAQKFFSKLEVEELAKQKAKQEKEKEKEKEKEKEKEKEKNEETNLDANEEQNNEAKNNEEKENSTKNENSANPEE
In the case of B1, the Km is reported as 283 (+/-3) μM and the Vmax is reported as 0.0198 µmol/min/mg.
